# Measurements from PMC7979937, “Crystal structures of human MGST2 reveal synchronized conformational changes regulating catalysis” (Nature Communications, 2021).
# Target: the molecule itself
# Assay: crystal structure; crystals grown in lipidic cubic phase (8.8 MAG for apo, 9.9 MAG for GSH and GSO3- complexes), protein at 30 mg/ml, 20 °C; apo, with 7 mM GSH, with 7 mM GSO3-; homo-trimer
protein,measurement,value
"Microsomal glutathione S-transferase 2 (human) (enzyme, Microsomal glutathione S-transferase 2 (MGST2), human; cDNA from IMAGE clone 5277851 cloned in pPICZA; Integral membrane protein, homo-trimer in the crystals; The terminal ends are disordered in the crystal structures; also called MGST2; apo-MGST2; source: Pichia pastoris KM71H, purified (Ni-Sepharose, S-hexylglutathione agarose, SEC) in DDM) not shown",stoichiometry N,3
